Test results reported in US20060024300A1.

Assays:
[1] = target: CD20 (human) (UniProt P11836); assay: cell-based or functional assay
[2] = target: CD20 (human) (UniProt P11836); assay: Scatchard analysis, cold antibody against 125I-2H7.v16 on WIL2-S cells

CD20 (human), sequence (P11836 whole entry): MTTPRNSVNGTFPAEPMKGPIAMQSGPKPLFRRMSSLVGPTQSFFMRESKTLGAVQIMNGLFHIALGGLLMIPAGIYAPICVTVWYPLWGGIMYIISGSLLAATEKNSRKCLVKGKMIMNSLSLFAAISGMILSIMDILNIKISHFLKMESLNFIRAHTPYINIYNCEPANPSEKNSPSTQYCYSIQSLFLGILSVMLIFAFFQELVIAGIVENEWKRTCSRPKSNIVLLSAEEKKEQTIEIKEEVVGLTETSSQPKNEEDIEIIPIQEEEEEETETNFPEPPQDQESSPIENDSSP

Rituxan (rituximab) (antibody)
ADCC on WIL2-S cells, EC50(variant)/EC50(2H7.v16) [1]: 5.3
ADCC on WIL2-S cells, EC50(variant)/EC50(Rituxan) [1]: 1
CDC on WIL2-S cells, EC50(variant)/EC50(Rituxan) [1]: 1
fraction of Annexin V stained Ramos cells at 10 nM crosslinked antibody [1]: 16.5%
fraction of doubly labeled (Annexin V and propidium iodide) Ramos cells at 10 nM [1]: 38%
live Ramos cells counted per 10 s at 10 nM (cells per 10 s) [1]: 3100
Kd [2]: 0.99 nM
